The subject of data set [1] is MCP T45L-SoxS R93A T45L (bacteriophage MS2). The data set is described as follows: cell_activity. The note with it: E. coli CRISPRa; some function retained.
Data set [2] concerns MS2 coat protein (MCP)-SoxS R93A fusion (bacteriophage MS2). The data set is described as follows: ELONA. The note with it: protein coated at 10 ug/mL; aptamer 0.25-2500 nM.
Data set [3] deals with T1, MS2 coat protein (MCP)-SoxS R93A fusion, wild-type MCP (bacteriophage MS2).
T1 chain: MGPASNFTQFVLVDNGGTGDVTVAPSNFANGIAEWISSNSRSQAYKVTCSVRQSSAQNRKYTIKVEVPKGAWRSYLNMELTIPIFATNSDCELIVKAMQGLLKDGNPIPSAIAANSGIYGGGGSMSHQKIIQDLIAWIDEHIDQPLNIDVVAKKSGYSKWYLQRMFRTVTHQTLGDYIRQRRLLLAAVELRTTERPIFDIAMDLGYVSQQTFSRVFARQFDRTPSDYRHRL
The data set is described as follows: cell_activity; CRISPRa in E. coli with dCas9, J1 promoter-GFP reporter. The note with it: tags: fused to SoxS(R93A); MS2 hairpin in sgRNA scaffold. An excerpt:
To test the ability of the CRISPR system to accommodate the insertion of an RNA aptamer motif into the sgRNA and allow for locus-specific effector recruitment in E. coli cells, a construct was first designed to insert a known RNA aptamer against bacteriophage MS2 coat protein (MCP) into the tetraloop region of sgRNA (FIG. 3A, SEQ ID NO. 8). Correspondingly, MCP was fused with the SoxS transcriptional activator. Three plasmids (SP, AP, and RP) were designed to introduce into the cell the sgRNA-aptamer chimera, the MCP-SoxS fusion along with dCas9 (SEQ ID NO. 10), and a synthetic reporter construct, respectively (FIG. 4). Following a design principle established by a previous study, the synthetic reporter was constructed to control the expression of enhanced green fluorescent protein (eGFP) by CRISPR co-localized with RNA polymerase through aptamer-MCP interaction (FIG. 3B). This synthetic reporter construct contained a weak promoter and multiple protospacer sequences to be targeted by sgRNA to control levels of gene activation (FIG. 5A).
The distance of the sgRNA target from the transcription start site was also tested by using this reporter. […] Low GFP levels were also observed when an off-target gRNA was used that had no binding site on the J1 synthetic promoter. […]

In data set [1], “UUAUCACCUUGGCUGCAGGCGUUUUAGAGCUAGAAAUAGCAAGUUAAAAUAAGGCUAGUCCGUUAUCAACUUGAAAAAGUGCGCACAUGAGGAUCACCCAUGUGCUUUUUU [gRNA J1.3-MS2 aptamer scaffold]” came in with a binding signal (fold GFP decrease vs wild-type MCP) of 23.

One may read the Kd as the constant that tells how readily two partners part at equilibrium. Lower therefore signals tighter binding. Turning to MS2 aptamer, the Kd in data set [2] came out at 0.0263 µM.

B1: gRNA J1.3-MS2 aptamer scaffold (ssRNA)
RNA: UUAUCACCUUGGCUGCAGGCGUUUUAGAGCUAGAAAUAGCAAGUUAAAAUAAGGCUAGUCCGUUAUCAACUUGAAAAAGUGCGCACAUGAGGAUCACCCAUGUGCUUUUUU
In turn, B1 came in with an activity in data set [3] of 56 fold GFP increase.

Source of the values: patent publication US20250215420, “MULTIPLEXABLE CRISPR EDITORS UTILIZING INTRACELLULAR EVOLVED APTAMERS FOR ENDOGENOUS EFFECTOR RECRUITMENT” (The Trustees of Boston College, published 2025).
